T1: PUF4 RNA-binding domain (Saccharomyces cerevisiae, UniProt P25339 537-888)
T1 sequence: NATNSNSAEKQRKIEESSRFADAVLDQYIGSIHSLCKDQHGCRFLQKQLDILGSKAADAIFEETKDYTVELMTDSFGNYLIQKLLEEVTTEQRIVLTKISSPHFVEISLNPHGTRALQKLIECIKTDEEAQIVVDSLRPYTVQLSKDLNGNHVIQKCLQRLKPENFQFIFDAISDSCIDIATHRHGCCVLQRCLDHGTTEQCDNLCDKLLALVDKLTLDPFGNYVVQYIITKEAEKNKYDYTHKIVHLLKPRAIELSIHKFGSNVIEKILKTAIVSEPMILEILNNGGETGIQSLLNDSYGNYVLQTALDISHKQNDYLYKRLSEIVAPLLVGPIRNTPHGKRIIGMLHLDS


Molecular target: T1, PUF4 RNA-binding domain
Experiment: Mg; RNA-MaP; 20 mM Na-HEPES pH 7.4, 30 mM KOAc, 0.75 mM MgCl2, 0.1% Tween-20, 5% glycerol, 0.1 mg/mL BSA, 2 mM DTT; 25 C; 0.0125-409.6 nM protein
Details: tags: N-His6-TEV cleaved; C-SNAP kept, Cy3B-labelled; label: tethered on chip by stalled RNA polymerase

Binder | Kd [nM]
UCUCUUUGUAUCAUGAUCUCUU (ssRNA) [Ib_S1_P5E.1_K5.1_C5.1_H5.1_A5.1_[T6C]_F5.1_[T9G]_T5.1] | 24.9
UCUCUUUGUAAUAUCAUCUCUU (ssRNA) [Ic_S1_P5E.1_K5.1_C5.1_H5.1_A5.1_[T5A]_F5.1_[T9C]_T5.1] | 26.1
UCUCUUUGUACUAUCAUCUCUU (ssRNA) [Ic_S1_P5E.1_K5.1_C5.1_H5.1_A5.1_[T5C]_F5.1_[T9C]_T5.1] | 17.8
UCUCUUUGUAAUAUAAUCUCUU (ssRNA) [Ib_S1_P5E.1_K5.1_C5.1_H5.1_A5.1_[T5A]_F5.1_[T9A]_T5.1] | 3.3
Id_ii_S2_P5E.4_K5.3_C5.2_[C-2G]_[T-1C]_H5.3_A5.1_F5.1_T5.2_[A12T] (ssRNA) RNA: UUUGAUUAAUAUGAUAUCGUUCUUUCUGCACACUUAUUAUUUUCUUUCUCGAUAUCAUAUUAAUCUUU | 341
Id_ii_S2_P5E.4_K5.3_C5.2_[C-2T]_[T-1A]_H5.3_A5.1_F5.1_T5.2_[T11C] (ssRNA) RNA: UUUGAUUAAUAUGAUAUCGUUCUUUCUUAACACUUAUUACAUUCUUUCUCGAUAUCAUAUUAAUCUUU | > 2300
Id_ii_S2_P5E.4_K5.3_C5.2_[C-2T]_[T-1C]_H5.3_A5.1_F5.1_T5.2_[T11C]_[A12G] (ssRNA) RNA: UUUGAUUAAUAUGAUAUCGUUCUUUCUUCACACUUAUUACGUUCUUUCUCGAUAUCAUAUUAAUCUUU | > 2300
Id_ii_S2_P5E.4_K5.3_C5.2_[C-2T]_[T-1C]_H5.3_A5.1_F5.1_T5.2_[T11A]_[A12T] (ssRNA) RNA: UUUGAUUAAUAUGAUAUCGUUCUUUCUUCACACUUAUUAAUUUCUUUCUCGAUAUCAUAUUAAUCUUU | > 2300
Id_ii_S2_P5E.4_K5.3_C5.2_[C-2G]_H5.3_A5.1_F5.1_T5.2_[T11C]_[A12C] (ssRNA) RNA: UUUGAUUAAUAUGAUAUCGUUCUUUCUGUACACUUAUUACCUUCUUUCUCGAUAUCAUAUUAAUCUUU | 3.03
Id_ii_S2_P5E.4_K5.3_C5.2_[C-2G]_H5.3_A5.1_F5.1_T5.2_[T11A]_[A12C] (ssRNA) RNA: UUUGAUUAAUAUGAUAUCGUUCUUUCUGUACACUUAUUAACUUCUUUCUCGAUAUCAUAUUAAUCUUU | 2.19
Id_ii_S2_P5E.4_K5.3_C5.2_[C-2A]_[T-1C]_H5.3_A5.1_F5.1_T5.2_[T11A] (ssRNA) RNA: UUUGAUUAAUAUGAUAUCGUUCUUUCUACACACUUAUUAAAUUCUUUCUCGAUAUCAUAUUAAUCUUU | > 2300
Id_ii_S2_P5E.4_K5.3_C5.2_[C-2T]_[T-1A]_H5.3_A5.1_F5.1_T5.2_[A12C] (ssRNA) RNA: UUUGAUUAAUAUGAUAUCGUUCUUUCUUAACACUUAUUAUCUUCUUUCUCGAUAUCAUAUUAAUCUUU | > 2300
Id_ii_S2_P5E.4_K5.3_C5.2_[C-2T]_H5.3_A5.1_F5.1_T5.2_[T11G]_[A12C] (ssRNA) RNA: UUUGAUUAAUAUGAUAUCGUUCUUUCUUUACACUUAUUAGCUUCUUUCUCGAUAUCAUAUUAAUCUUU | > 2300
Id_ii_S2_P5E.4_K5.3_C5.2_[C-2A]_[T-1C]_H5.3_A5.1_F5.1_T5.2_[A12C] (ssRNA) RNA: UUUGAUUAAUAUGAUAUCGUUCUUUCUACACACUUAUUAUCUUCUUUCUCGAUAUCAUAUUAAUCUUU | > 2300
Id_ii_S2_P5E.4_K5.3_C5.2_[C-2A]_[T-1C]_H5.3_A5.1_F5.1_T5.2_[T11G]_[A12C] (ssRNA) RNA: UUUGAUUAAUAUGAUAUCGUUCUUUCUACACACUUAUUAGCUUCUUUCUCGAUAUCAUAUUAAUCUUU | > 2300
Id_ii_S2_P5E.4_K5.3_C5.2_[C-2G]_H5.3_A5.1_F5.1_T5.2_[A12C] (ssRNA) RNA: UUUGAUUAAUAUGAUAUCGUUCUUUCUGUACACUUAUUAUCUUCUUUCUCGAUAUCAUAUUAAUCUUU | 1.12
Id_ii_S2_P5E.4_K5.3_C5.2_[C-2T]_[T-1A]_H5.3_A5.1_F5.1_T5.2 (ssRNA) RNA: UUUGAUUAAUAUGAUAUCGUUCUUUCUUAACACUUAUUAUAUUCUUUCUCGAUAUCAUAUUAAUCUUU | 790
Id_ii_S2_P5E.4_K5.3_C5.2_[C-2T]_H5.3_A5.1_F5.1_T5.2_[T11A]_[A12C] (ssRNA) RNA: UUUGAUUAAUAUGAUAUCGUUCUUUCUUUACACUUAUUAACUUCUUUCUCGAUAUCAUAUUAAUCUUU | > 2300
Id_ii_S2_P5E.4_K5.3_C5.2_[C-2T]_[T-1A]_H5.3_A5.1_F5.1_T5.2_[T11C]_[A12G] (ssRNA) RNA: UUUGAUUAAUAUGAUAUCGUUCUUUCUUAACACUUAUUACGUUCUUUCUCGAUAUCAUAUUAAUCUUU | > 2300
Id_ii_S2_P5E.4_K5.3_C5.2_[C-2T]_[T-1A]_H5.3_A5.1_F5.1_T5.2_[T11A]_[A12T] (ssRNA) RNA: UUUGAUUAAUAUGAUAUCGUUCUUUCUUAACACUUAUUAAUUUCUUUCUCGAUAUCAUAUUAAUCUUU | > 2300
Id_ii_S2_P5E.4_K5.3_C5.2_[C-2T]_H5.3_A5.1_F5.1_T5.2_[T11A]_[A12T] (ssRNA) RNA: UUUGAUUAAUAUGAUAUCGUUCUUUCUUUACACUUAUUAAUUUCUUUCUCGAUAUCAUAUUAAUCUUU | > 2300

Binder | Kd [nM]
Id_ii_S2_P5E.4_K5.3_C5.2_[C-2A]_[T-1C]_H5.3_A5.1_F5.1_T5.2_[T11C] (ssRNA) RNA: UUUGAUUAAUAUGAUAUCGUUCUUUCUACACACUUAUUACAUUCUUUCUCGAUAUCAUAUUAAUCUUU | > 2300
Id_ii_S2_P5E.4_K5.3_C5.2_[C-2A]_[T-1C]_H5.3_A5.1_F5.1_T5.2_[T11C]_[A12C] (ssRNA) RNA: UUUGAUUAAUAUGAUAUCGUUCUUUCUACACACUUAUUACCUUCUUUCUCGAUAUCAUAUUAAUCUUU | > 2300
Id_ii_S2_P5E.4_K5.3_C5.2_[C-2G]_H5.3_A5.1_F5.1_T5.2_[A12T] (ssRNA) RNA: UUUGAUUAAUAUGAUAUCGUUCUUUCUGUACACUUAUUAUUUUCUUUCUCGAUAUCAUAUUAAUCUUU | 1.25
Id_ii_S2_P5E.4_K5.3_C5.2_[C-2T]_[T-1C]_H5.3_A5.1_F5.1_T5.2_[A12C] (ssRNA) RNA: UUUGAUUAAUAUGAUAUCGUUCUUUCUUCACACUUAUUAUCUUCUUUCUCGAUAUCAUAUUAAUCUUU | > 2300
Id_ii_S2_P5E.4_K5.3_C5.2_[C-2A]_[T-1C]_H5.3_A5.1_F5.1_T5.2_[T11C]_[A12G] (ssRNA) RNA: UUUGAUUAAUAUGAUAUCGUUCUUUCUACACACUUAUUACGUUCUUUCUCGAUAUCAUAUUAAUCUUU | > 2300
Id_ii_S2_P5E.4_K5.3_C5.2_[C-2T]_H5.3_A5.1_F5.1_T5.2_[T11C]_[A12C] (ssRNA) RNA: UUUGAUUAAUAUGAUAUCGUUCUUUCUUUACACUUAUUACCUUCUUUCUCGAUAUCAUAUUAAUCUUU | 1930
Id_ii_S2_P5E.4_K5.3_C5.2_[C-2T]_[T-1C]_H5.3_A5.1_F5.1_T5.2_[T11C]_[A12C] (ssRNA) RNA: UUUGAUUAAUAUGAUAUCGUUCUUUCUUCACACUUAUUACCUUCUUUCUCGAUAUCAUAUUAAUCUUU | > 2300
Id_ii_S2_P5E.4_K5.3_C5.2_[C-2A]_[T-1C]_H5.3_A5.1_F5.1_T5.2_[T11A]_[A12C] (ssRNA) RNA: UUUGAUUAAUAUGAUAUCGUUCUUUCUACACACUUAUUAACUUCUUUCUCGAUAUCAUAUUAAUCUUU | > 2300
Id_ii_S2_P5E.4_K5.3_C5.2_[C-2T]_H5.3_A5.1_F5.1_T5.2_[T11C]_[A12T] (ssRNA) RNA: UUUGAUUAAUAUGAUAUCGUUCUUUCUUUACACUUAUUACUUUCUUUCUCGAUAUCAUAUUAAUCUUU | 1530
Id_ii_S2_P5E.4_K5.3_C5.2_[C-2G]_H5.3_A5.1_F5.1_T5.2 (ssRNA) RNA: UUUGAUUAAUAUGAUAUCGUUCUUUCUGUACACUUAUUAUAUUCUUUCUCGAUAUCAUAUUAAUCUUU | 2.21
Id_ii_S2_P5E.4_K5.3_C5.2_[C-2T]_[T-1C]_H5.3_A5.1_F5.1_T5.2_[T11C] (ssRNA) RNA: UUUGAUUAAUAUGAUAUCGUUCUUUCUUCACACUUAUUACAUUCUUUCUCGAUAUCAUAUUAAUCUUU | > 2300
Id_ii_S2_P5E.4_K5.3_C5.2_[C-2G]_H5.3_A5.1_F5.1_T5.2_[T11A]_[A12T] (ssRNA) RNA: UUUGAUUAAUAUGAUAUCGUUCUUUCUGUACACUUAUUAAUUUCUUUCUCGAUAUCAUAUUAAUCUUU | 1.37
Id_ii_S2_P5E.4_K5.3_C5.2_[C-2G]_H5.3_A5.1_F5.1_T5.2_[T11A] (ssRNA) RNA: UUUGAUUAAUAUGAUAUCGUUCUUUCUGUACACUUAUUAAAUUCUUUCUCGAUAUCAUAUUAAUCUUU | 1.43
Id_ii_S2_P5E.4_K5.3_C5.2_[C-2T]_H5.3_A5.1_F5.1_T5.2 (ssRNA) RNA: UUUGAUUAAUAUGAUAUCGUUCUUUCUUUACACUUAUUAUAUUCUUUCUCGAUAUCAUAUUAAUCUUU | 722
Id_ii_S2_P5E.4_K5.3_C5.2_[C-2T]_H5.3_A5.1_F5.1_T5.2_[A12C] (ssRNA) RNA: UUUGAUUAAUAUGAUAUCGUUCUUUCUUUACACUUAUUAUCUUCUUUCUCGAUAUCAUAUUAAUCUUU | 1890
Id_ii_S2_P5E.4_K5.3_C5.2_[C-2T]_[T-1A]_H5.3_A5.1_F5.1_T5.2_[T11A]_[A12C] (ssRNA) RNA: UUUGAUUAAUAUGAUAUCGUUCUUUCUUAACACUUAUUAACUUCUUUCUCGAUAUCAUAUUAAUCUUU | > 2300
Id_ii_S2_P5E.4_K5.3_C5.2_[C-2T]_H5.3_A5.1_F5.1_T5.2_[A12T] (ssRNA) RNA: UUUGAUUAAUAUGAUAUCGUUCUUUCUUUACACUUAUUAUUUUCUUUCUCGAUAUCAUAUUAAUCUUU | 1990
Id_ii_S2_P5E.4_K5.3_C5.2_[C-2T]_H5.3_A5.1_F5.1_T5.2_[T11C]_[A12G] (ssRNA) RNA: UUUGAUUAAUAUGAUAUCGUUCUUUCUUUACACUUAUUACGUUCUUUCUCGAUAUCAUAUUAAUCUUU | > 2300
Id_ii_S2_P5E.4_K5.3_C5.2_[C-2G]_H5.3_A5.1_F5.1_T5.2_[T11C]_[A12T] (ssRNA) RNA: UUUGAUUAAUAUGAUAUCGUUCUUUCUGUACACUUAUUACUUUCUUUCUCGAUAUCAUAUUAAUCUUU | 11
Id_ii_S2_P5E.4_K5.3_C5.2_[C-2T]_[T-1C]_H5.3_A5.1_F5.1_T5.2 (ssRNA) RNA: UUUGAUUAAUAUGAUAUCGUUCUUUCUUCACACUUAUUAUAUUCUUUCUCGAUAUCAUAUUAAUCUUU | 751
Id_ii_S2_P5E.4_K5.3_C5.2_[C-2T]_[T-1C]_H5.3_A5.1_F5.1_T5.2_[T11C]_[A12T] (ssRNA) RNA: UUUGAUUAAUAUGAUAUCGUUCUUUCUUCACACUUAUUACUUUCUUUCUCGAUAUCAUAUUAAUCUUU | > 2300
